According to publication PMC11203719, “Mts1 (S100A4) and Its Peptide Demonstrate Cytotoxic Activity in Complex with Tag7 (PGLYRP1) Peptide” (International Journal of Molecular Sciences, 2024):

B1: Mts1 (S100A4) protein, recombinant human (natural protein)
chain: not shown
modifications: Alexa Fluor 633 label (only in the thermophoresis with Tag7, 17.1, 17.1A and 17.1B)
notes: cDNA subcloned into pQE-30; PDB 3NCF is printed for Mts1 but may be a misprint; also called metastasin 1; full-sized Mts1; source: E. coli M15 (pREP4), pQE-30, purified (HisTrap FF)
B2: peptide 17.1A of Tag7 (PGLYRP1) (peptide)
peptide: RSNYVLKG
notes: source: synthetic peptide (Fmoc, HPLC purified)
B3: peptide 17.1B of Tag7 (PGLYRP1) (peptide)
peptide: HRDVQRT
notes: as for B2

Assays:
[1] = molecular target: the molecule itself; assay: SDS-PAGE and Western blot; eluate of recombinant Mts1 from 17.1-Sepharose resolved by 12% SDS-PAGE and blotted with anti-Mts1; oligomer state read from the band
[2] = molecular target: B1; assay: MST; Mts1 labelled with Alexa Fluor 633 (200 nM), preincubated 20 min in the dark at room temperature with 16 concentrations of Tag7 or peptide; Monolith NT.115, 10% IR laser power; apparent Kd; conditions: both partners purified

Binder | stoichiometry N [1] | Kd [2]
B1 | 4 | –
B2 | – | 109 nM
B3 | – | 7.26 nM
